Test results taken from the supplement of paper PMC7877785.
± gives the uncertainty stated by the source.

Assay: self-splicing fitness, log relative to wild type (ln ratio); higher = more splicing; Tetrahymena group I intron in knt gene, E. coli kanamycin selection, DiMSum; sequences stand for … in CUCUCU…GGAGGGAAAAGUUAUCAGGCAUGCACCUGGUAGCUAGUCUUUAAACCAAUAGAUUGCAUCGGUUUAAAAGGCAAGACCGUCAAAUUGCGGGAAAGGGGUCAACAGCCGUUCAGUACCAAGUCUCAGGGGAAACUUUGAGAUGGCCUUGCAAAGGGUAUGGUAAUAAGCUGACGGACAUGGUCCUAACCACGCAGCCAAGUCCUAAGUCAACAGAUCUUCUGUUGAUAUGGAUGCAGUUCACAGACUAAAUGUCGGUCGGGGAAGAUGUAUUCUUCUCAUAAGAUAUAGUCGGACCUCUCCUUAAUGGGAGCUAGCGGAUGAAGUGAUGCAACACUGGAGCCGCUGGGAACUAAUUUGUAUGCGAAAGUAUAUUGAUUAGUUUUGGAGUACUCGUGGUCG
Outline: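 The eight P1ex-region nucleotides of an intron in the knt kanamycin-resistance gene on pET-22b(+) were all randomised and the library put into E. coli BL21(DE3). Six replicate transformations were grown overnight at 37°C or 30°C on LB agar with or without 25 μg/mL kanamycin, together with 100 μg/mL carbenicillin, 50 μM IPTG and 0.2% rhamnose. Colonies were pooled and amplicon-sequenced on an Illumina HiSeq 2500. Fitness from DiMSum is the error-weighted combination of wild-type-normalised replicate fold changes, kanamycin over none.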

Sequence	self-splicing fitness (ln) (30 °C)	self-splicing fitness (ln) (37 °C)
AAUUAGCAAUAUUACGGUCG	-0.573 ± 0.099	-0.259 ± 0.12
AAUUAGCAAUAUUACGGUGA	-1.7 ± 0.084	-0.534 ± 0.099
AAUUAGCAAUAUUACGGUUA	-0.622 ± 0.11	-0.183 ± 0.099
AAUUAGCAAUAUUACGGUUC	-3.38 ± 0.22	-2.65 ± 0.26
AAUUAGCAAUAUUACGUAAA	-1.3 ± 0.11	-0.736 ± 0.18
AAUUAGCAAUAUUACGUAUU	-2.32 ± 0.18	-0.913 ± 0.14
AAUUAGCAAUAUUACGUGUA	-2.21 ± 0.15	-1.41 ± 0.12
AAUUAGCAAUAUUACGUUAC	-3.18 ± 0.15	-1.74 ± 0.17
ACAAAGCAAUAUUACGACCU	0.0994 ± 0.076	0.311 ± 0.091
ACAAAGCAAUAUUACGAGGA	-3.04 ± 0.2	-2.07 ± 0.19
ACAAAGCAAUAUUACGAGUU	-3.3 ± 0.099	-1.68 ± 0.096
ACAAAGCAAUAUUACGCAAG	-1.45 ± 0.079	0.00248 ± 0.087
ACAAAGCAAUAUUACGCACC	-0.449 ± 0.19	0.128 ± 0.2
ACAAAGCAAUAUUACGCACU	-0.0924 ± 0.069	0.264 ± 0.089
ACAAAGCAAUAUUACGCAUU	-3.06 ± 0.095	-1.56 ± 0.082
ACAAAGCAAUAUUACGCCCC	-0.67 ± 0.27	-0.241 ± 0.26
ACAAAGCAAUAUUACGCGGU	-3.37 ± 0.13	-2.68 ± 0.14
ACAAAGCAAUAUUACGCUGU	-2.48 ± 0.14	-3.01 ± 0.27
ACAAAGCAAUAUUACGGAGA	-3.37 ± 0.19	-2.39 ± 0.19
ACAAAGCAAUAUUACGGGAG	-1.72 ± 0.1	-1.08 ± 0.12
ACAAAGCAAUAUUACGGUGA	-1.28 ± 0.069	-0.535 ± 0.07

Sequence	self-splicing fitness (ln) (30 °C)	self-splicing fitness (ln) (37 °C)
ACAAAGCAAUAUUACGUGAC	-3.4 ± 0.11	-1.37 ± 0.092
ACAAAGCAAUAUUACGUGCA	-0.78 ± 0.057	-0.154 ± 0.074
ACAAAGCAAUAUUACGUGCC	-1.14 ± 0.077	-1.16 ± 0.097
ACAAAGCAAUAUUACGUGCU	-0.981 ± 0.069	-0.486 ± 0.082
ACAAAGCAAUAUUACGUGGU	-2.87 ± 0.084	-2.99 ± 0.12
ACAAAGCAAUAUUACGUUCG	-1.28 ± 0.049	-0.0172 ± 0.067
ACAAAGCAAUAUUACGUUGU	-3.68 ± 0.14	-2.18 ± 0.15
ACACAGCAAUAUUACGAAGU	-3.43 ± 0.14	-2.21 ± 0.15
ACACAGCAAUAUUACGACGA	-0.721 ± 0.074	-0.406 ± 0.081
ACACAGCAAUAUUACGACGU	-0.452 ± 0.048	0.722 ± 0.073
ACACAGCAAUAUUACGAGAG	-3.65 ± 0.14	-2.37 ± 0.12
ACACAGCAAUAUUACGAGCC	-1.97 ± 0.17	-0.179 ± 0.19
ACACAGCAAUAUUACGAGUA	-2.69 ± 0.12	-0.889 ± 0.081
ACACAGCAAUAUUACGAUUC	-1.96 ± 0.049	-1.32 ± 0.072
ACACAGCAAUAUUACGCAAC	-5.33 ± 0.36	-1.88 ± 0.17
ACACAGCAAUAUUACGCCUG	-0.898 ± 0.07	-0.245 ± 0.076
ACACAGCAAUAUUACGCUGA	-2.42 ± 0.096	-1.47 ± 0.083
ACACAGCAAUAUUACGCUUC		-3.08 ± 0.23
ACACAGCAAUAUUACGCUUG	-1.24 ± 0.063	-0.733 ± 0.076
ACACAGCAAUAUUACGGAGU	-2.39 ± 0.087	-2.01 ± 0.11
ACACAGCAAUAUUACGGAUC	-2.94 ± 0.12	-2.1 ± 0.15
